Drawing on US20090028788A1 (WASHINGTON UNIVERSITY IN ST LOUIS, published 2009), this text covers IC50 for 18 molecules.

Bridges are numbered along the chain shown (N, C = ends). Primed or numbered codes have the meaning given here. [ ]: non-standard residue; d: D form. The star is where a group is joined. DOTA = O=C(O)CN1CCN(CC(=O)O)CCN(CC(=O)*)CCN(CC(=O)O)CC1; DTPA = O=C(O)CN(CCN(CC(=O)O)CC(=O)O)CCN(CC(=O)O)CC(=O)*; Cypate′ = NIR carbocyanine dye; Ahx = NCCCCCC(=O)O; βAla = NCCC(=O)O

For this experiment, the target named is T1, purified human αvβ3 integrin protein (human, UniProt P06756 31-1048; P05106 27-788).
T1 construct: Bought heterodimer; also called ABI; purified αvβ3 integrin
T1 sequence (P06756 31-1048, form in doubt, chain 1 of 2): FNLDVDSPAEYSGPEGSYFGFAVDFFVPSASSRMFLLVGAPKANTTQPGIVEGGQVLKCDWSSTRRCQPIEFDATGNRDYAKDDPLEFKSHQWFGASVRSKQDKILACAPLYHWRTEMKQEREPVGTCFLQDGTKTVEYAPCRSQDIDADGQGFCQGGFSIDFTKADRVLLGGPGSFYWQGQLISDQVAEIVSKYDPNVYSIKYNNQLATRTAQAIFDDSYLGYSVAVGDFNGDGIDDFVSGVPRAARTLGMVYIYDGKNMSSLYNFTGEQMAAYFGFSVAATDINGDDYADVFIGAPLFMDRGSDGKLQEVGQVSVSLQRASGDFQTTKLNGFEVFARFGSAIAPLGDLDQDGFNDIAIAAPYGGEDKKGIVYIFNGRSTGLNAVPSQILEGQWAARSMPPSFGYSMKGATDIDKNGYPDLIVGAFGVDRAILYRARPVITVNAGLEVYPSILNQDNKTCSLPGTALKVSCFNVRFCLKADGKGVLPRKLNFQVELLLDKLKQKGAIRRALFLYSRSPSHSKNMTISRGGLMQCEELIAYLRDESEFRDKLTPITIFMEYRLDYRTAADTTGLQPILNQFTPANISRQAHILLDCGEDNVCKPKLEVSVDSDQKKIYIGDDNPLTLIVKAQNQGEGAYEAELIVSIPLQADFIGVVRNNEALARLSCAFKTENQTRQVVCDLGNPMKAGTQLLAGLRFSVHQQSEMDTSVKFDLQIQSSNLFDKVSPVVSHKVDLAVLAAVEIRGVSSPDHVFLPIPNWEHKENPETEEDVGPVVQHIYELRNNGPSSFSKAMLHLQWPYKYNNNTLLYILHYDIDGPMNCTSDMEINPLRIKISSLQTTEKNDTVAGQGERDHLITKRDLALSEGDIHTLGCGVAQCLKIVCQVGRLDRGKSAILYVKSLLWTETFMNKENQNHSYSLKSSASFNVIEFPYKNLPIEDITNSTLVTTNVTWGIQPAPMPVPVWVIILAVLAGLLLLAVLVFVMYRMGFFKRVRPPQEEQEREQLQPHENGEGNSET
T1 sequence (P05106 27-788, form in doubt, chain 2 of 2): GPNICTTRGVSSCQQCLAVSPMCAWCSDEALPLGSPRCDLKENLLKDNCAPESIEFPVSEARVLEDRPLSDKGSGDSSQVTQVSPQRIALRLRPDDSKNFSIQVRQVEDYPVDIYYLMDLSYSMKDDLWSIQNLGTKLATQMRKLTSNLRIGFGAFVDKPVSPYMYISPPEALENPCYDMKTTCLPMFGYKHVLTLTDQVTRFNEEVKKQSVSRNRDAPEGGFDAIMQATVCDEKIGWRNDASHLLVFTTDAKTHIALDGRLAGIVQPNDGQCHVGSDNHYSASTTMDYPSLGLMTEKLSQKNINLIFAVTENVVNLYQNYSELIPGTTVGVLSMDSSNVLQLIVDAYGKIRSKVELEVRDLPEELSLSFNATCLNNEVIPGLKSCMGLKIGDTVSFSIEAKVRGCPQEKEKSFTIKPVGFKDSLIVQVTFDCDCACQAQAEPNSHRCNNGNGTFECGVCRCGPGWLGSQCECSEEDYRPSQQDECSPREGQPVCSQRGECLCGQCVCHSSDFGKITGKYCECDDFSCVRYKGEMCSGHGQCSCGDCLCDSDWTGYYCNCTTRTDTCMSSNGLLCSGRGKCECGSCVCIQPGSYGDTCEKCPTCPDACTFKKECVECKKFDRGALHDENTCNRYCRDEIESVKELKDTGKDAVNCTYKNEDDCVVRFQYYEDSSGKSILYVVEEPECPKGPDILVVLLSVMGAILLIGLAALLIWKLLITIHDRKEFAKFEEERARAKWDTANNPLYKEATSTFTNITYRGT
Nature of the experiment: competition with 125I-echistatin on purified human αvβ3 integrin, filter plate.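 Also: test ligands incubated two hours at room temperature with the integrin, bound radioactivity retained on filters measured by gamma counting, IC50 obtained through nonlinear regression fitting.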

Protocol: The binding affinities were measured based on the competitive binding between purified αᵥβ₃ integrin (ABI) and peptide ligands.
Receptor binding assays were performed by using purified human αᵥβ₃ integrin protein from Chemicon International, Inc. (Temecula, Calif.). Assays were carried out using the Millipore Duropore membrane 96-well plates and the Millipore MultiScreen system (Bedford, Mass.). […] The concentration range of ligand was between 0.01 μM and 100 μM. The mixtures were incubated for 2 h at room temperature, the ABI was then filtered by centrifugation at 1500 g and washed three times with 0.20 mL of ice-cold binding buffer. The filters containing radioactivity bound ABI were removed using a punch apparatus and counted using a Packard Cobra II Auto-gamma counter (Meriden, Conn.). […] The 50% inhibitory concentrations (IC₅₀) were calculated by nonlinear regression analysis by use of the GraphPad Prism 4 computer fitting program (GraphPad Software, Inc., San Diego, Calif.).

B1: Cyclo(Arg-Gly-Asp-DPhe-Asp)-Lys-NH2 (peptide)
peptide: RGD[dF]DK-NH2
modifications: lactam N-5; also: cyclo Arg1-Asp5: which Asp5 carboxyl (side chain or α) closes ring not given here
B1: the IC50 came to 1.74 µM.

B2: DTPA-DPhe-Cyclo(Cys-Tyr-DTrp-Lys-Thr-Cys)-Thr-Val-Arg-Gly-Asp-DPhe-NH2 (peptide)
peptide: XCYXKTCTVRGDX
HELM: PEPTIDE1{[O=C(O)CN(CCN(CC(=O)O)CC(=O)O)CCN(CC(=O)O)CC(=O)[*:2]].[dF].C.Y.[dW].K.T.C.T.V.R.G.D.[dF].[am]}$PEPTIDE1,PEPTIDE1,3:R3-8:R3$$$V2.0
SMILES: CC(C)[C@H](NC(=O)[C@@H](NC(=O)[C@@H]1CSSC[C@H](NC(=O)[C@@H](Cc2ccccc2)NC(=O)CN(CCN(CCN(CC(=O)O)CC(=O)O)CC(=O)O)CC(=O)O)C(=O)N[C@@H](Cc2ccc(O)cc2)C(=O)N[C@H](Cc2c[nH]c3ccccc23)C(=O)N[C@@H](CCCCN)C(=O)N[C@@H]([C@@H](C)O)C(=O)N1)[C@@H](C)O)C(=O)N[C@@H](CCCNC(=N)N)C(=O)NCC(=O)N[C@@H](CC(=O)O)C(=O)N[C@H](Cc1ccccc1)C(N)=O
In the case of B2, the IC50 stood at 0.945 µM.

B3: Cypate-BAla-Arg-Gly-Asp-EAhx-Arg-Gly-Asp-EAhx-Arg-Gly-Asp-Ser-Pro-Lys-OH (peptide)
peptide: {Cypate′}-[βAla]RGD[Ahx]RGD[Ahx]RGDSPK-OH
As to B3, the IC50 worked out at 0.0656 µM. This IC50 is about 14-fold lower than that of the molecule before.

B4: H-DPhe-Cyclo(Cys-Tyr-DTrp-Lys-Thr-Cys)-Thr-Val-Arg-Gly-Asp-DPhe-NH2 (peptide)
peptide: XCYXKTCTVRGDX
HELM: PEPTIDE1{[dF].C.Y.[dW].K.T.C.T.V.R.G.D.[dF].[am]}$PEPTIDE1,PEPTIDE1,2:R3-7:R3$$$V2.0
SMILES: CC(C)[C@H](NC(=O)[C@@H](NC(=O)[C@@H]1CSSC[C@H](NC(=O)[C@H](N)Cc2ccccc2)C(=O)N[C@@H](Cc2ccc(O)cc2)C(=O)N[C@H](Cc2c[nH]c3ccccc23)C(=O)N[C@@H](CCCCN)C(=O)N[C@@H]([C@@H](C)O)C(=O)N1)[C@@H](C)O)C(=O)N[C@@H](CCCNC(=N)N)C(=O)NCC(=O)N[C@@H](CC(=O)O)C(=O)N[C@H](Cc1ccccc1)C(N)=O
In turn, B4 yielded an IC50 of 0.357 µM. Against the preceding molecule, the IC50 is about 5.4-fold higher.

B5: DTPA-DPhe-Cyclo(Cys-Tyr-DTrp-Lys-Thr-Cys)-Thr-Val-Arg-Gly-Asp-NH2 (peptide)
peptide: {DTPA}-[dF]CY[dW]KTCTVRGD-NH2
modifications: disulfide 2-7
As for B5, the IC50 amounted to 1.11 µM. This IC50 lies about 3.1-fold higher than the previous one.

B6: DTPA-His-Asp-Cys(Et)-Arg-Gly-Asp-Cys(Et)-Phe-Lys-OH (peptide)
peptide: {DTPA}-HDC(Et)RGDC(Et)FK-OH
SMILES: CCSC[C@H](NC(=O)[C@H](CC(=O)O)NC(=O)CNC(=O)[C@H](CCCNC(=N)N)NC(=O)[C@H](CSCC)NC(=O)[C@H](CC(=O)O)NC(=O)[C@H](Cc1c[nH]cn1)NC(=O)CN(CCN(CCN(CC(=O)O)CC(=O)O)CC(=O)O)CC(=O)O)C(=O)N[C@@H](Cc1ccccc1)C(=O)N[C@@H](CCCCN)C(=O)O
B6 yielded an IC50 of 0.712 µM.

B7: Cyclo(Arg-Gly-Asp-DPhe-Asp)-EAhx-Lys-OH (peptide)
peptide: RGD[dF]D[Ahx]K-OH
modifications: lactam N-5; also: cyclo Arg1-Asp5: which Asp5 carboxyl (side chain or α) closes ring not given here
The molecule B7 came in with an IC50 of 1.94 µM.

B8: DOTA-Arg-Gly-Asp-Ser-Pro-Lys-OH (peptide)
peptide: {DOTA}-RGDSPK-OH
Regarding B8, the IC50 stood at 0.694 µM.

B9: Cypate-DPhe-Cyclo(Cys-Tyr-DTrp-Lys-Thr-Cys)-Thr-Val-Arg-Gly-Asp-NH2 (peptide)
peptide: {Cypate′}-[dF]CY[dW]KTCTVRGD-NH2
modifications: disulfide 2-7
The molecule B9 gave an IC50 of 4.42 µM. This IC50 lies about 6.4-fold higher than the previous one.

B10: H-DPhe-Cyclo(Cys-Tyr-DTrp-Lys-Thr-Cys)-Thr-Val-Arg-Gly-Asp-NH2 (peptide)
peptide: XCYXKTCTVRGD
HELM: PEPTIDE1{[dF].C.Y.[dW].K.T.C.T.V.R.G.D.[am]}$PEPTIDE1,PEPTIDE1,2:R3-7:R3$$$V2.0
SMILES: CC(C)[C@H](NC(=O)[C@@H](NC(=O)[C@@H]1CSSC[C@H](NC(=O)[C@H](N)Cc2ccccc2)C(=O)N[C@@H](Cc2ccc(O)cc2)C(=O)N[C@H](Cc2c[nH]c3ccccc23)C(=O)N[C@@H](CCCCN)C(=O)N[C@@H]([C@@H](C)O)C(=O)N1)[C@@H](C)O)C(=O)N[C@@H](CCCNC(=N)N)C(=O)NCC(=O)N[C@@H](CC(=O)O)C(N)=O
Regarding B10, the IC50 stood at 0.722 µM.

B11: DTPA-Gly-Arg-Asp-Ser-Pro-Lys-OH (peptide)
peptide: {DTPA}-GRDSPK-OH
Regarding B11, the IC50 turned out to be 0.849 µM.

B12: H-B-Ala-Asp-Cys-Arg-Gly-Asp-Cys(Et)-Phe-Val-OH (peptide)
peptide: H-[βAla]DCRGDC(Et)FV-OH
SMILES: CCSC[C@H](NC(=O)[C@H](CC(=O)O)NC(=O)CNC(=O)[C@H](CCCNC(=N)N)NC(=O)[C@H](CS)NC(=O)[C@H](CC(=O)O)NC(=O)CCN)C(=O)N[C@@H](Cc1ccccc1)C(=O)N[C@H](C(=O)O)C(C)C
B12: the 50% inhibitory concentration (IC50) was determined as 0.329 µM.

B13: H-His-Asp-Arg-Gly-Asp-Cys-Phe-Lys-OH (peptide)
peptide: H-HDRGDCFK-OH
B13 showed an IC50 of 0.411 µM. This IC50 and that of the molecule before are within 1.5-fold of each other.

B14: DTPA-Val-Arg-Gly-Asp-DPhe-Cyclo(Cys-Tyr-DTrp-Lys-Thr-Cys)-Thr-NH2 (peptide)
peptide: VRGDXCYXKTCT
HELM: PEPTIDE1{[O=C(O)CN(CCN(CC(=O)O)CC(=O)O)CCN(CC(=O)O)CC(=O)[*:2]].V.R.G.D.[dF].C.Y.[dW].K.T.C.T.[am]}$PEPTIDE1,PEPTIDE1,7:R3-12:R3$$$V2.0
SMILES: CC(C)[C@H](NC(=O)CN(CCN(CCN(CC(=O)O)CC(=O)O)CC(=O)O)CC(=O)O)C(=O)N[C@@H](CCCNC(=N)N)C(=O)NCC(=O)N[C@@H](CC(=O)O)C(=O)N[C@H](Cc1ccccc1)C(=O)N[C@H]1CSSC[C@@H](C(=O)N[C@H](C(N)=O)[C@@H](C)O)NC(=O)[C@H]([C@@H](C)O)NC(=O)[C@H](CCCCN)NC(=O)[C@@H](Cc2c[nH]c3ccccc23)NC(=O)[C@H](Cc2ccc(O)cc2)NC1=O
B14 showed an IC50 of 0.584 µM.

B15: DTPA-Gly-Arg-Gly-Asp-Ser-Pro-Lys-OH (peptide)
peptide: {DTPA}-GRGDSPK-OH
In the case of B15, the IC50 was 0.353 µM.

B16: Cyclo(DPhe-Val-Lys-Arg-Gly-Asp)-OH (peptide)
peptide: XVKRGD
HELM: PEPTIDE1{[dF].V.K.R.G.D}$PEPTIDE1,PEPTIDE1,1:R1-6:R2$$$V2.0
SMILES: CC(C)[C@@H]1NC(=O)[C@@H](Cc2ccccc2)NC(=O)[C@H](CC(=O)O)NC(=O)CNC(=O)[C@H](CCCNC(=N)N)NC(=O)[C@H](CCCCN)NC1=O
Turning to B16, the IC50 came out at 1.89 µM.

B17: Cypate-Lys-Arg-Gly-Asp-DPhe-EAhx-NH2 (peptide)
peptide: {Cypate′}-KRGD[dF][Ahx]-NH2
As for B17, the IC50 was 3.02 µM.

B18: H-Val-Arg-Gly-Asp-DPhe-Cyclo(Cys-Tyr-DTrp-Lys-Thr-Cys)-Thr-NH2 (peptide)
peptide: VRGDXCYXKTCT
HELM: PEPTIDE1{V.R.G.D.[dF].C.Y.[dW].K.T.C.T.[am]}$PEPTIDE1,PEPTIDE1,6:R3-11:R3$$$V2.0
SMILES: CC(C)[C@H](N)C(=O)N[C@@H](CCCNC(=N)N)C(=O)NCC(=O)N[C@@H](CC(=O)O)C(=O)N[C@H](Cc1ccccc1)C(=O)N[C@H]1CSSC[C@@H](C(=O)N[C@H](C(N)=O)[C@@H](C)O)NC(=O)[C@H]([C@@H](C)O)NC(=O)[C@H](CCCCN)NC(=O)[C@@H](Cc2c[nH]c3ccccc23)NC(=O)[C@H](Cc2ccc(O)cc2)NC1=O
Molecule B18 had a 50% inhibitory concentration (IC50) of 1.68 µM. Compared with the last molecule, the IC50 is about 1.8-fold lower.
